Test results: article PMC9097884 (Science Immunology, 2022)

B1: REGN10987 (recombinant human IgG1/kappa) (antibody, V domains shown)
VH: QVQLVESGGGVVQPGRSLRLSCAASGFTFSNYAMYWVRQAPGKGLEWVAVISYDGSNKYYADSVKGRFTISRDNSKNTLYLQMNSLRTEDTAVYYCASGSDYGDYLLVYWGQGTLVTVSS
VL: QSALTQPASVSGSPGQSITISCTGTSSDVGGYNYVSWYQQHPGKAPKLMIYDVSKRPSGVSNRFSGSKSGNTASLTISGLQSEDEADYYCNSLTSISTWVFGGGTKLTVL
B2: 87G7 human monoclonal antibody (recombinant human IgG1/kappa) (antibody, V domains shown)
VH: EVQLLESGGGLVQPGGSLRLSCVASGFTFSSYVMSWVRQAPGKGLEWVAAISGSGGNTYYADSVKGRFTISRDNSKNTLYLQMNSLRAEDTAVYYCAKEGTYYYGSGSFWGQGTLVTVSS
VL: EIVLTQSPATLSLSPGERATLSCRASQSFHNYLAWYQQKPGRAPRLLIFDASNRATGIPARFSGSGSGTDFTLTISSLEPEDFAVYYCQQRFNWPLTFGGGTKVEIK
notes: also called 87G7 IgG; 87G7 mAb
B3: REGN10933 (recombinant human IgG1/kappa) (antibody, V domains shown)
VH: QVQLVESGGGLVKPGGSLRLSCAASGFTFSDYYMSWIRQAPGKGLEWVSYITYSGSTIYYADSVKGRFTISRDNAKSSLYLQMNSLRAEDTAVYYCARDRGTTMVPFDYWGQGTLVTVSS
VL: DIQMTQSPSSLSASVGDRVTITCQASQDITNYLNWYQQKPGKAPKLLIYAASNLETGVPSRFSGSGSGTDFTFTISGLQPEDIATYYCQQYDNLPLTFGGGTKVEIK
notes: source: HEK-293T, transient transfection, purified (Protein A Sepharose)

Columns and labels:
[1] = biological target: SARS-CoV-2 S1 (residues 1-682, Wuhan-Hu-1) (SARS-CoV-2 (Wuhan-Hu-1 strain), UniProt P0DTC2); experiment: ELISA; conditions: both partners purified
[2] = biological target: T1, SARS-CoV-2 S receptor-binding domain (RBD, residues 329-538, Wuhan-Hu-1) (SARS-CoV-2 (Wuhan-Hu-1 strain), UniProt P0DTC2); experiment: ELISA; conditions: both partners purified
T1 construct: also called SARS-CoV-2 S RBD domain; not shown: Strep-tag, C-terminal, kept

| Binder | binding result [1] | binding result [2] |
| --- | --- | --- |
| B1 | binds | – |
| B2 | binds | binds |
| B3 | binds | binds |
